Experimental data published in a protein production outcome set (Wang et al. 2014).

test: label from the status in PepcDB records

Sequence	protein production
MSEVTKNSLEKILPQLKCHFTWNLFKEDSVSRDLEDRVCNQIEFLNTEFKATMYNLLAYIKHLDGNNEAALECLRQAEELIQQEHADQAEIRSLVTWGNYAWVYYHLGRLSDAQIYVDKVKQTCKKFSNPYSIEYSELDCEEGWTQLKCGRNERAKVCFEKALEEKPNNPEFSSGLAIAMYHLDNHPEKQFSTDVLKQAIELSPDNQYVKVLLGLKLQKMNKEAEGEQFVEEALEKSPCQTDVLRSAAKFYRRKGDLDKAIELFQRVLESTPNNGYLYHQIGCCYKAKVRQMQNTGESEASGNKEMIEALKQYAMDYSNKALEKGLNPLNAYSDLAEFLETECYQTPFNKEVPDAEKQQSHQRYCNLQKYNGKSEDTAVQHGLEGLSISKKSTDKEEIKDQPQNVSENLLPQNAPNYWYLQGLIHKQNGDLLQAAKCYEKELGRLLRDAPSGIGSIFLSASELEDGSEEMGQGAVSSSPRELLSNSEQLN	failed
MSEVVKKFMYLNRKAPYGTIYAWEALEVVLIGAAFDQDVCVLFLDDGVYQLTRGQDTKGIGMKNFSPTYRTLGDYEVRRIYVDRDSLEARGLTQDDLVEIAFEDMETEEEFDNIVEVIDSARVSELMNESDAVFSF	not failed
MSEYLPIIIPSVFLVIPSIAILYMEKRFSTAVYTAVIGLLISFLSFTLFFSLGYYNYGVFNNALYLTKFGYFIAISSLIATILVVLGSSNDLKNWETGTSFLSLSLLTNIGVIYLAFAYNVLVIFASWAIASAATYVIAMLKKDYQSVEAGVKYLVMGLLSSSLMIIGLAFFVTAGNTLYLDPVISYQPLIVLSIIFFSIAFLFKIGAFPFQGWLPEVYSLADRFSVGFVSSVGKIVGIEPLLVILYYLIQDNSSSQVIYLTVVILFSIISVLSLIFGNISAFSRKDFAQILAYSSITQVGFMVIGIAMLPVNMNIAISGLMVYLLSYSIAQAGLFVSLSHVEKITGSSYFESFRGMSSGDRVLAFSMTILLLSLLGIPPILGFWAKLFVLESSFSQPWLTIIGFINSAISAGYYIPPIREIFREGQFKKVDSPERDSVIVAAVLSIALGIISPLIFGVLV	failed
MSEYRTVSAAAMLGTYEDFLELFEKGYEDKESVLKSNILYDVLRNNNDEARYKISMFLINKGADIKSRTKEGTTLFFPLFQGGGNDITGTTELCKIFLEKGADITALYKPYKIVVFKNIFNYFVDENEMIPLYKLIFSQSGLQLLIKDKWGLTALEFVKRCQKPIALKMMEDYIKKYNLKENS	not failed
MSFDISELLTLYDVVTFSFPERYEDLMREIIEKATRLFGVRRLAIVLREGERYKCIERWGFRRDEEVLERIKNGGENSFIYLMRNGEQGLLYIEPPGRISEREKRLYTIFARRIENIIARKQIEEKIKNSEQEKKVILDSIVELLVFQNPDNRILWANRAAAEYAGARSEELAGRFCYEALHHRDEPCEECPVIKALDTGVPQEGIIASLEGRQFFVRGYPVKKENGLIEGIVEVSVDVTERMQAEEAFRTIFNSVHDAIFIHTLDGKIIDVNQTMLRMYVINSKEEAIKLSIIDDYSIPGSTAEQLPLLWQKVISGENLLFEWKARRPVDGSVFDVEVFLKKISLSKKDVILAAVRDITERKREEELLRNLFTHSPIGMYIVSEGKFQLINPQFEILTGYRQDKLIGMESLNLVVPEDRKMVRSNAIKMLKGEAVEPYEFRIVTGQGDIRWMEETVASIWHDGKRVTLGNIIDITQKKKFEQKLAYISLHDQLTALYNRAYFEEELKRLSTSRKYPITIIVADVNGLKLVNDTMGHDKGDELLTACARVLKKAFRSSDVVARVGGDEFVALLPRTDGKTGKSILKRLRLFIDKYNQEHPELPLSVSFGIATADTPEQSLKEIYKKADDLMYQEKLNLGSSARSKIVNALLTALSERDYITEGHARRMQKLCQDLGEKVGLSAQQLANLSLLAQVHDLGKVGIPDRILFKRGPLTEKEWEVMRQHPEKGYRIAMSSPDLAGIADLILKHHEKWDGTGYPLGLKEEEIPIECRILSIVDAFDAMTSGRPYCRTKTIEDALKEIRRCAGTQFDPRLAEAFIEMITSEKFTAGEKEVAT	failed
MSFFLTTPAAIDLGVNIDHVATLRNARGTAYPDPVRAALAAEDAGADAITLHLREDRRHIVDADVRTLRPRVKTRMNLECAVTPEMLDIACEIRPHDACLVPEKRSELTTEGGLDVVGHFDAVRAACKQLADAGVRVSLFIDPDEAQIRAAHETGAPVIELHTGRYADAHDAAEQQREFERIATGVDAGIALGLKVNAGHGLHYTNVQAIAALPGIAELNIGHAIVAHAVFVGWDNAVREMKAIMVAARVAALHGGR	not failed
MSFGDTLGLGFMTFAFFLGAGNLIFPPFAGMLAGENMLLAMLGFLITAVGLPLVGLIAVAKAQGKVMAMLPVFAATALAIAIYIIIGPAFAAPRTGLVAYEIGAKPFIDNTTATIMLGSLSLNLSQLIYTLGFFIVTMLLALFPGKLLDSVGKVLTPILLLLLVGLALSVLFLPASEVGVAVGDYKNHPLTKGILEGYNTMDTLASLMFGMLIIDLLRKKGIEQPSAQTKYLIRAAFIAAAGLAFVYVSLFFLGATAGDIAAGAKNGGEILTNYVTREFGSLGTVLLSAVVTLACLTTAVGLVSACSEFFNELMPKLSYRFLVVALSAICALIANVGLSQLINISIPVLMAVYPVAIALVAVTFLTEYFPRPQFAHRAALSVALLFGIFDGMKVAAKSLTGEDGRGITEFAQSFIDFVNGMSPTLSILPLYEEGMAWLLPTLVVIVLCLIIRGSGAKTVSAA	failed
MSFIRTFYGDIAPEQLGFTYSHEHIVCVPAYWQERDADDLLLDDKEKSQLDVQDFADLGGKTIVDATAVDYGRRVLDVAQISKETGIQIVGTAGFNKSFLWDGKIKPELKPIIGDFETYYEWIENTSIDKLTEFVVNEVENGLEGTPYKAGQVKFGTGYNMITPLEEKTIRAVARAHHETKAPIHSHTEAGTMALEQIEILKQENIPLEYLSIGHMDRNLDPYYHKQVAKTGAFMSFDGIAKIKYAPESARIAAILYLVSEGFEDQILVSGDTARKTYYKHYGHGPGLEYIAKKWVPRFIDEANEKGFDGEKLVKKFFVDNPARCFTFKK	failed
MSFKRDRGDYKGRIDWFTIILYLLLVVAGWFAVCGASYDFDISHLFMMGGRPMMQLLWIGLAVVIGFMVLLMETDIFESLAPVFYAAMLGLLALTILIAPDIKGSHSWLVIGPLRLQPAEFAKVTTALFLAWKLNQNDFVLRGMKAYASTFAIILIPVLLILMQNETGSALVYIAFFLALYREGMSGVFIGIAFCAVLFFVTALKLQGDVWWGHTDAAEWSVVSMAFVIGFFLVRIYTKERGRFYVVAAGLTAVTYAVAIVLSYFVSVDFVLVAYGLLAALIVWALSMAIKRYVLSYALIAVFALCSVGYFYSVDYVFNKVMQPHQQMRIRVALGIEDDLRGGGYNVDQSKIAIGSGGFMGKGFLKGTQTKLKYVPEQDTDFIFCTVGEEQGFLGSVLLLIGYATLIIRIVALAERQTKVFSRVYGHSVAAILLFHLSINVGMVIGLVPVIGIPLPFFSYGGSSLWGFTLLIFIFLRLDADRDCR	failed
MSFLCVRTVSRFRSLSRALAPGFLLLHGNAVPKTAVFFRQQSSNTRLFSSYTAPSGVEENNSKSALKNKLPPGKEVSSKDAKEKITTSAIDLALNSVVKVFTVSSKPRLFQPWQITMQSESTGSGFVISGKKILTNAHVVANQTSVKVRKHGSTTKYKAKVQAVGHECDLAILEIDNDKFWEGMNPLELGDIPSMQDTVYVVGYPKGGDTISVSKGVVSRVGPIKYSHSGTELLAIQIDAAINNGNSGGPVIMGNKVAGVAFESLCYSDSIGYIIPTPVIRHFLNAIEESGEDVSFGSINLTYQKMDNDQLRKDFKMSDKMTGILINKINPLSDVHKVLKKDDIILAIDGVPIGNDSSVHFRKKERITFKHLVSMKKPCETALLKVLREGKEYEFNSSLKSVPPLVPKRQYDKSASYYIFGGLVFLPLTKPYIDSSCVSESALGKMPKKAGEQVVIISQILEDDINTGYSIFEDFQVKKVNGVQVHNLKHLYKLVEECCTETVRMDLEKDKVITLDYKSAKKVTSKILKSLKIPSAVSEDLQPKQQNKRSKVPPKSKEH	failed
MSFRAFLPAAMLVTVAGFWLGASTPGVAQYCEGTVHGLSGRYNLATGSGFLAVRTRPNSSSRMIGQLFNGDHVEIFDRRGNWYQVEIGGSTGWANARWLRNDCRY	failed
MSFSDHFSAVAASYAKARPRYPQRWFRYLARIVPDRQRVWDCATGNGQAAIALAEYFSEVIGSDASAAQVRQARSHPRVQYLVFPAEATPLAPASLDLITVAQAAHWFDLPQFYIEAQRLLRPGGVIALWGYGLGSLNPAIDHVFNHFYRDWLDPYWPPERQWVEQAYEGLSFPFEPLPTPTFSMQCDWTLFDLLAYLRTWSGVQQFQRQRGFDPVWAIAPELQRVWGDPQRYRRITWPLFAKVGRWQPDRVRLEHHHHHH	failed
MSFSRHIGVTMIDVVDLSRLQFALTAMYHFLFVPLTLGMAFLLAIMESMYVMTNKQIYKDMTKFWGKLFGINFALGVATGLTMEFQFGTNWSYYSHYVGDIFGAPLAIEALVAFFLESTFVGLFFFGWDRLSKRQHLAVTWLVALGSNFSALWILIANGWMQNPVGADFNFETMRMEMVSFSEVVLNPVAQVKFVHTVASGYTCGAMFILGISSYYLLKGRDIAFARRSFAIAASFGIAAILSTIVLGDESGYELGEVQKVKLAAIEAEWHTEPAPAAFTLFGVPNQETMHTDYAIKIPYVMGIIATRSFDEQVTGLRDLRDEHVERIRGGMYAYELLEKLRAGDKSEENMTAFDEVKGDLGYGLLLKRYTDNVVDATEEQIQAAADDSIPTVWPLFWSFRIMVACGFIMLFVFGAAFIQTCRQKIEQKQWILKAALLSIPLPWIAIEAGWFVAEYGRQPWAVGEILPVHVAASALTAGEIWTSLFAILALYTVFLIAEVYLMLKFARKGPSSLKTGRYHFEQNADSVEDKVSRQVEA	failed
MSFVPSLPNLGRFWTAANALSLCRLALVVPITVFLWRDGPLGWLLGLVILVILTDWFDGRIARWTHSVSDWGKVIDPVADKFAAIMTVTALTFRPADPHLPLWFFGLVVGRDVAILLGGMAIARRSGQIVMSAWAGKAASLWLALTILSVILRADPPVFRVCLWMATGLFVFSFLLYVVRYLQATRNAEGATPDSVPQGP	failed
MSGARNVEQWQDFIGSCLDFRPADGVFRIARDMFTEPELFDLEMELIFEKNWIYACHESELPNNHDFITMRAGRQPMIITRDGEGRLNALVNACQHRGTTLTRVGKGNQSTFTCPFHAWCYKSDGRLVKVKAPGEYDEGFDKATRGLKKARIESYKGFVFISLDVAADNSLEDFLGDARIFFDMMVAQSPDGELEVLPGKSAYTYDGNWKLQNENGLDGYHVSTVHYNYVATVQHRQQVNADSGAGSSATLDYSKLGAGDASTDDGWFAFENGHSVLFSEMPNPAVRSGYASIMPRLVAEHGQAKAEWMMHRLRNLNIYPSLFFLDQISSQLRIIRPIAWNKTEIISQCIGVKGESDADRENRIRQFEDFFNVSGMGTPDDLVEFREAQRGFQGRLERWSDISRGRQHWVSGPTANSENLGIQPAMTGTEITHEGLYVNQHRNWQKFLLDGLQRRPLKLREV	failed
MSGEGNLGKDHEEENEAPLPGFRFHPTDEELLGYYLRRKVENKTIKLELIKQIDIYKYDPWDLPRVSSVGEKEWYFFCMRGRKYRNSVRPNRVTGSGFWKATGIDKPVYSNLDCVGLKKSLVYYLGSAGKGTKTDWMMHEFRLPSTTKTDSPAQQAEVWTLCRIFKRVTSQRNPTILPPNRKPVITLTDTCSKTSSLDSDHTSHRTVDSMSHEPPLPQPQNPYWNQHIVGFNQPTYTGNDNNLLMSFWNGNGGDFIGDSASWDELRSVIDGNTKP	failed
MSGHDHGDDGVNRRKVLECMTWAGTGVLWTITGGVPRSLGIIDSAQAATAAAPGMTFLQISDSHVGFDKPANPNALGTLEEAINKINAMPAKPSFMIHTGDITHLSKAAEFDNAERIISQTKLDVHYVPGEHDFIDEEVKLYRERYGRGTKGHGWYSFDAGGVHFVGLVNVVDLKAGGLGNLGAEQLAWLEDDLRGKSKSTPVVLFAHIPLWTVYPEWGWGTEDGGRALEYVKGFGSVTVLNGHIHQVMQKVEGNVTFHTARSTAFPQPAPGAAPSPGPMKVEDARLRSMLGVASINFKQNEQRLAIIDTPLQG	failed
